Data as given in publication PMC7076219 (2020).
Residue numbers refer to the chain shown, from its start. Names may count otherwise. “And” between values parts separate entries of the source, which are not always exact repeats. Equal entries are not always repeated.

B1: E-S0 (mouse E-selectin lectin and EGF domains, no SCR domains) (domain or fragment)
chain: WYYNASSELMTYDEASAYCQRDYTHLVAIQNKEEINYLNSNLKHSPSYYWIGIRKVNNVWIWVGTGKPLTEEAQNWAPGEPNNKQRNEDCVEIYIQRTKDSGMWNDERCNKKKLALCYTASCTNASCSGHGECIETINSYTCKCHPGFLGPNCEQ
B2: E-S6 (monomeric full-length extracellular mouse E-selectin) (domain or fragment)
chain: WYYNASSELMTYDEASAYCQRDYTHLVAIQNKEEINYLNSNLKHSPSYYWIGIRKVNNVWIWVGTGKPLTEEAQNWAPGEPNNKQRNEDCVEIYIQRTKDSGMWNDERCNKKKLALCYTASCTNASCSGHGECIETINSYTCKCHPGFLGPNCEQAVTCKPQEHPDYGSLNCSHPFGPFSYNSSCSFGCKRGYLPSSMETTVRCTSSGEWSAPAPACHVVECEALTHPAHGIRKCSSNPGSYPWNTTCTFDCVEGYRRVGAQNLQCTSSGIWDNETPSCKAVTCDAIPQPQNGFVSCSHSTAGELAFKSSCNFTCEQSFTLQGPAQVECSAQGQWTPQIPVCKAVQCEALSAPQQGNMKCLPSASGPFQNGSSCEFSCEEGFELKGSRRLQCGPRGEWDSKKPTCSAVKCDDVPRPQNGVMECAHATTGEFTYKSSCAFQCNEGFSLHGSAQLECTSQGKWTQEVPSCQVVQCPSLDVPGKMNMSCSGTAVFGTVCEFTCPDDWTLNGSAVLTCGATGRWSGMPPTCEAPVSPTRP
B3: E-S2-A28H (E-S2 with the A28H mutation in the lectin domain) (domain or fragment)
chain: WYYNASSELMTYDEASAYCQRDYTHLVHIQNKEEINYLNSNLKHSPSYYWIGIRKVNNVWIWVGTGKPLTEEAQNWAPGEPNNKQRNEDCVEIYIQRTKDSGMWNDERCNKKKLALCYTASCTNASCSGHGECIETINSYTCKCHPGFLGPNCEQAVTCKPQEHPDYGSLNCSHPFGPFSYNSSCSFGCKRGYLPSSMETTVRCTSSGEWSAPAPACHVVECEALTHPAHGIRKCSSNPGSYPWNTTCTFDCVEGYRRVGAQNLQCTSSGIWDNETPSCKA
B4: E-S2 (truncated mouse E-selectin with only the first two SCR domains) (domain or fragment)
chain: B3 chain with H28A

Each binder was assayed against T1, CD44/HCELL (hematopoietic cell E- and/or L-selectin ligand) (human (endogenous in KG1a), UniProt P16070-12 21-361) (assay: SPR).
T1 sequence (P16070 other isoform, or with tags, fused parts or gaps): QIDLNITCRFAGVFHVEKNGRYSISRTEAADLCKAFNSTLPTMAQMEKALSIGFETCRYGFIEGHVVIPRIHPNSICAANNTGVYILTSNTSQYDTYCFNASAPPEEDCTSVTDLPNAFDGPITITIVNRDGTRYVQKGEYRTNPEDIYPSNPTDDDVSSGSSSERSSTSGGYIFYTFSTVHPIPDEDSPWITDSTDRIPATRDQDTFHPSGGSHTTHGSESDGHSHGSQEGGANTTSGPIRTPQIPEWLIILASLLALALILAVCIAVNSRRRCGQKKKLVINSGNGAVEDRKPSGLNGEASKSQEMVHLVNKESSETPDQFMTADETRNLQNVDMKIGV

| Kd [nM] | Binder |
| --- | --- |
| 18700 | B1 |
| 1700 | B2 |
| 1190 | B3 |

Target: T1, CD44/HCELL (hematopoietic cell E- …)
Assay: SPR
Remark: another data set of the same source

| koff | Binder |
| --- | --- |
| 5e-05 s⁻¹ and 7e-05 s⁻¹ | B1 |
| 0.000225 s⁻¹ and 0.00014 s⁻¹ | B2 |
| 0.0002 s⁻¹ and 0.00011 s⁻¹ | B3 |
| 0.00016 s⁻¹ and 0.00014 s⁻¹ | B4 |
